How the values were obtained:
[1] = target: T1, design 30 G-CSFR(Ig-CRH)E, tag cleaved (human, UniProt Q99062 26-331); test: SPR, WT G-CSF against design 30 G-CSFR(Ig-CRH)E, single-cycle kinetics
T1 construct: also called Design 30 G-CSFR(Ig-CRH)E mutant
T1 chain: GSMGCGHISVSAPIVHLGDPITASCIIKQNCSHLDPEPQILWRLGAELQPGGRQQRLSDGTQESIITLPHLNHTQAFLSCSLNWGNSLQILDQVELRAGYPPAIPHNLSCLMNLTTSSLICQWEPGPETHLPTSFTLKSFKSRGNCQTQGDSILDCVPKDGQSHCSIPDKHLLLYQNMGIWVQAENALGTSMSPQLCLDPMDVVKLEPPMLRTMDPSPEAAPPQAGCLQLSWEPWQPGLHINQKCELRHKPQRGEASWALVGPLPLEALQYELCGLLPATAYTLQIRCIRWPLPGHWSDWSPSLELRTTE

[2] = target: T2, design 35 G-CSFR(Ig-CRH)E, tag cleaved (human, UniProt Q99062 26-331); test: SPR, WT G-CSF against design 35 G-CSFR(Ig-CRH)E, single-cycle kinetics
T2 chain: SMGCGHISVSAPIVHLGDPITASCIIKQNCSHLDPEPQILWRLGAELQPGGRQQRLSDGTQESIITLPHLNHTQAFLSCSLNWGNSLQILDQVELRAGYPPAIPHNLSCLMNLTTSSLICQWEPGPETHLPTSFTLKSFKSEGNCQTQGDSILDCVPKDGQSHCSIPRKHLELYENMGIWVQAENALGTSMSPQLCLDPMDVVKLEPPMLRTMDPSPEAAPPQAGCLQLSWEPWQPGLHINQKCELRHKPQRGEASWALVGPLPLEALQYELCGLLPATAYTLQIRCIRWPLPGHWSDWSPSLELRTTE

[3] = target: T3, design 34 G-CSFR(Ig-CRH)E, tag cleaved (human, UniProt Q99062 26-331); test: SPR, WT G-CSF against design 34 G-CSFR(Ig-CRH)E; steady state derived affinity constant
T3 construct: also called Design 34 G-CSFR(Ig-CRH)E mutant
T3 chain: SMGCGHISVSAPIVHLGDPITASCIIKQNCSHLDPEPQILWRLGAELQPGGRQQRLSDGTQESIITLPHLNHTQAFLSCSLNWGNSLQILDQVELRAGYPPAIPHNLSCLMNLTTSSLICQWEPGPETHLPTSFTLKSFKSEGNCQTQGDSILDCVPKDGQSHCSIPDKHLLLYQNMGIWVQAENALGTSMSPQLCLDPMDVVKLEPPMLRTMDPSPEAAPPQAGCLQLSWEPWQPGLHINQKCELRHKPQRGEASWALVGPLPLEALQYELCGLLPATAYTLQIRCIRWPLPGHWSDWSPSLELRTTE

[4] = target: T4, WT G-CSFR(Ig-CRH), purified, tag cleaved (human, UniProt Q99062 26-331); test: SPR (Biacore T200), WT receptor amine-coupled, cytokine injected
T4 construct: also called G-CSFRWT; wild type G-CSFR(Ig-CRH)
T4 chain: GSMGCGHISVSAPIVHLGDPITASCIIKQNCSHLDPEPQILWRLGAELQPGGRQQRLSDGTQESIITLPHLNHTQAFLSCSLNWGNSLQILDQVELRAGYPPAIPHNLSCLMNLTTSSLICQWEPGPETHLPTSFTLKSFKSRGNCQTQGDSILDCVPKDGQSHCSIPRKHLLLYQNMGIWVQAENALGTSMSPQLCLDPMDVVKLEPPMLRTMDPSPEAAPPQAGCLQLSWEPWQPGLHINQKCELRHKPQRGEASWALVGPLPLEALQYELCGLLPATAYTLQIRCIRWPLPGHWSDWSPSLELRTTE
Method: (§1) The SPR binding assays were carried out on a Biacore T200 instrument (GE Healthcare, Mississauga, ON, Canada) with PBS-T (PBS+0.05% (v/v) Tween 20) running buffer at a temperature of 25° C. CM5 Series S sensor chip, Biacore amine coupling kit (NHS, EDC and 1 M ethanolamine), and 10 mM sodium acetate buffers were all purchased from GE Healthcare. PBS running buffer with 0.05% Tween20 (PBS-T) was purchased from Teknova Inc. (Hollister, CA). Designs were assessed in three different immobilization orientations.
(§2) To assess binding affinity of G-CSFE to G-CSFRWT, recombinant G-CSFRWT purified as described in Example 5 was captured as described above in this Example. Using single-cycle kinetics, six concentrations of a two-fold dilution series of each G-CSFE mutant starting at […] with a blank buffer control were sequentially injected as described above. The same sample titration was also performed on a reference cell with no variants captured. The G-CSFRWT surface was regenerated as described above.
(§3) Double-referenced sensorgrams from duplicate or triplicate repeat injections were analyzed using Biacore™ T200 Evaluation Software v3.0 and fit to the 1:1 Langmuir binding model.

[5] = target: T5, design 307 G-CSFR(Ig-CRH)E, tag cleaved (human, UniProt Q99062 26-331); test: SPR, G-CSFRE amine-coupled, G-CSFE injected; steady state derived affinity constant
T5 chain: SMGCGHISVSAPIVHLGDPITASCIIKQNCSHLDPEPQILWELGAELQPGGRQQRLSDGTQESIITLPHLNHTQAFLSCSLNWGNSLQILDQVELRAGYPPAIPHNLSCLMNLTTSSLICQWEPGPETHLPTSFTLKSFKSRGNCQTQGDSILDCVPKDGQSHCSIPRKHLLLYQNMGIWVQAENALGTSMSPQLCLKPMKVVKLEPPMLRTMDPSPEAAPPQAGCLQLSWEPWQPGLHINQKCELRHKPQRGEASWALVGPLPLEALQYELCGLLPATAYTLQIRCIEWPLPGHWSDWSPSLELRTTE
Method: (§4) To determine binding affinity of G-CSFE to G-CSFRE the G-CSFRE mutant was captured by standard amine coupling as described by the manufacturer (GE LifeSciences). Briefly, immediately after EDC/NHS activation, a 5 μg/mL solution of G-CSFRE in 10 mM NaOAc, pH 5.0, was injected at a flow rate of 5 μL/min until a receptor density of ˜700-900 RU was reached. The remaining active groups were quenched by a 420 s injection of 1 M ethanolamine hydrochloride-NaOH pH 8.5 at 10 μL/min. Using single-cycle kinetics, six concentrations of a two-fold dilution series of the corresponding G-CSFE mutant starting at 200 nM with a blank buffer control were sequentially injected at 25 μL/min for 300 s with a 1800 s dissociation phase, resulting in a set of sensorgrams with a buffer blank reference. The same sample titration was also performed on a reference cell with no variants captured. The chip was regenerated to prepare for the next injection cycle by one pulse of 10 mM glycine/HCl, pH 2.0, for 30 s at 30 μL/min.
as §3
Kinetic-derived affinity constants (KD) where obtained by fitting the association and dissociation phases of the curves. The KD of WT G-CSF for WT G-CSFR(Ig-CRH) ranged between 1.8-2.5E-9. For the cases in which the kinetic parameters could not be fit an attempt was made to derive a steady state affinity constant. In those cases, the KD fold change was calculated from the steady state derived KD for the WT G-CSF:WT G-CSFR(Ig-CRH) pair and is indicated in Table 7.

[6] = target: T4, WT G-CSFR(Ig-CRH), purified, tag cleaved; test: SPR, WT G-CSFR(Ig-CRH) amine-coupled, G-CSFE injected, single-cycle kinetics
Method: as §1, §2

[7] = target: T2, design 35 G-CSFR(Ig-CRH)E, tag cleaved; test: SPR, G-CSFRE amine-coupled, G-CSFE injected, single-cycle kinetics
Method: as §1, §4, §3

[8] = target: T3, design 34 G-CSFR(Ig-CRH)E, tag cleaved; test: as above
Method: as §1, §4, §3

[9] = target: T6, design 304 G-CSFR(Ig-CRH)E, tag cleaved (human, UniProt Q99062 26-331); test: as above
T6 chain: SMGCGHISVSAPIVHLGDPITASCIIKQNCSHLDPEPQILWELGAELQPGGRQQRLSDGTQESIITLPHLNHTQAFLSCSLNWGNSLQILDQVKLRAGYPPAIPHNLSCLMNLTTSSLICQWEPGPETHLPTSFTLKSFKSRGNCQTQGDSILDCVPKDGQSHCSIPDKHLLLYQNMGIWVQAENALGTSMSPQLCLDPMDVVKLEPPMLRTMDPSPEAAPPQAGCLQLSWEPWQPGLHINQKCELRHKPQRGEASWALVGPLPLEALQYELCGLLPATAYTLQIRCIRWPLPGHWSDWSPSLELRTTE
Method: as §1, §4, §3

[10] = target: T1, design 30 G-CSFR(Ig-CRH)E, tag cleaved; test: as above
Method: as §1, §4, §3

B1: WT G-CSF, purified from insect cells, tag cleaved (ligand)
chain: TPLGPASSLPQSFLLKCLEQVRKIQGDGAALQEKLCATYKLCHPEELVLLGHSLGIPWAPLSSCPSQALQLAGCLSQLHSGLFLYQGLLQALEGISPELGPTLDTLQLDVADFATTIWQQMEELGMAPALQPTQGAMPAFASAFQRRAGGVLVASHLQSFLEVSYRVLRHLAQAAAENLYFQ
notes: protein of the SPR; also called G-CSFWT; wild type G-CSF
KD fold change (against WT:WT) [1]: 774 fold | KD fold change (against WT:WT) [2]: 19 fold | KD fold change (against WT:WT) [3]: 4260 fold

B2: design 307 G-CSFE, tag cleaved (ligand)
chain: TPLGPASSLPQEFLLDCLKQVRKIQGDGAALQEKLCATYKLCHPERLVLLGHSLGIPWAPLSSCPSQALQLAGCLSQLHSGLFLYQGLLQALEGISPELGPTLDTLQLDVADFATTIWQQMEELGMAPALQPTQGAMPAFASAFQRRAGGVLVASHLQSFLEVSYRVLRHLAQAAAENLYFQ
binding result [4]: no binding | KD fold change (against WT:WT) [5]: 0.6 fold

B3: design 35 G-CSFE, tag cleaved (ligand)
chain: TPLGPASSLPQSFLLKCLEQVRKIQGDGAALQEKLCATYKLCHPEELVLLGHSLGIPWAPLSSCPSQALQLAGCLSQLHSGLFLYQGLLQALEGISPELGPTLDTLQLDVADFAKTIWQQMRRLGMAPALQPTQGAMPAFASAFQRRAGGVLVASHLQSFLEVSYRVLRHLAQAAAENLYFQ
notes: also called design 35 G-CSFE mutant
KD fold change (against WT:WT) [6]: 5 fold | KD fold change (against WT:WT) [7]: 3.3 fold

B4: design 34 G-CSFE, tag cleaved (ligand)
chain: TPLGPASSLPQSFLLKCLEQVRKIQGDGAALQEKLCATYKLCHPEELVLLGHSLGIPWAPLSSCPSQALQLAGCLSQLHSGLFLYQGLLQALEGISPELGPTLDTLQKDVARFATTIWQQMRRLGMAPALQPTQGAMPAFASAFQRRAGGVLVASHLQSFLEVSYRVLRHLAQAAAENLYFQ
notes: also called design 34 G-CSFE mutant
KD fold change (against WT:WT) [6]: 33 fold | KD fold change (against WT:WT) [8]: 5 fold

B5: design 304 G-CSFE, tag cleaved (ligand)
chain: TPLGPASSLPQSFLLKCLEQVRKIQGDGAALQEKLCATYKLCHPERLVLLGHSLGIPWAPLSSCPSQALQLAGCLSQLHSGLFLYQGLLQALEGISPELGPTLDTLQKDVARFATTIWQQMEELGMAPALQPTQGAMPAFASAFQREAGGVLVASHLQSFLEVSYRVLRHLAQAAAENLYFQ
binding result [4]: no binding | KD fold change (against WT:WT) [9]: 6.5 fold

B6: design 30 G-CSFE, tag cleaved (ligand)
chain: TPLGPASSLPQSFLLKCLEQVRKIQGDGAALQEKLCATYKLCHPEELVLLGHSLGIPWAPLSSCPSQALQLAGCLSQLHSGLFLYQGLLQALEGISPELGPTLDTLQKDVARFATTIWQQMEELGMAPALQPTQGAMPAFASAFQRRAGGVLVASHLQSFLEVSYRVLRHLAQAAAENLYFQ
notes: also called design 30 G-CSFE mutant
KD fold change (against WT:WT) [6]: 20 fold | KD fold change (against WT:WT) [10]: 11 fold
